This data set deals with Hsp90alpha recombinant (UniProt P07900 1-732). The experiment in a line: filter binding.

Broadly, the Kd is the constant that tells how readily two partners part at equilibrium.

B1: 390896 PS/LNA 5-10-5 (XNA)
DNA: CTGCTAGCCTCTGGATTTGA
modifications: full PS; LNA nt 1-5 and 16-20, DNA 6-15
As to B1, the Kd was determined as 17.7 nM.

The values above are taken from paper PMC4856991.
